The source of these data is the Immune Epitope Database (IEDB).

The target of one assay is HLA-A*80:01. Kind of assay: IEDB peptide-MHC binding, purified MHC/direct/fluorescence; filed as Kd, often an IC50 or EC50 that approximates it; ≥ and ≤ were set here for values at or beyond the usual limits of such assays.
The next assay concerns the target HLA-A*01:01. The assay is described as above.
Another assay addresses HLA-A*02:12. Described as above. To be noted: source organism: Amur virus Solovey/AP63/1999.
Another assay concerns the target HLA-C*07:02. The description is as above. To be noted: source organism: Hantaan virus 76-118.
For another assay, the target named is HLA-A*02:11. The description is as above. To be noted: source organism: Amur virus Solovey/AP63/1999.
In another assay the target is HLA-A*02:01. The description is as above.
Another assay has as its target HLA-C*04:01. Described as above.
Assay [1] concerns the target HLA-A*24:02. Kind of assay: IEDB peptide-MHC binding, purified MHC/competitive/fluorescence; filed as Kd, often an IC50 or EC50 that approximates it; ≥ and ≤ were set here for values at or beyond the usual limits of such assays. To be noted: source organism: Shigella flexneri 5 str. 8401.
For a further assay, the target named is HLA-B*46:01. Kind of assay: IEDB peptide-MHC binding, purified MHC/direct/fluorescence; filed as Kd, often an IC50 or EC50 that approximates it; ≥ and ≤ were set here for values at or beyond the usual limits of such assays. The conditions noted are these: source organism: Influenza A virus (A/Switzerland/8808/2002(H1N1)).
The target in another assay is HLA-B*27:05. The assay is described as above.
For another assay, the target named is HLA-B*58:01. The description is as above.
Assay [2] addresses HLA-A*24:02. The description is as above.
For another assay, the target named is HLA-A*11:01. Described as above.
The next assay addresses HLA-B*08:01. The description is as above. To be noted: source organism: Influenza A virus (A/Switzerland/8808/2002(H1N1)).
A further assay has as its target HLA-B*18:01. The description is as above.
In a further assay the target is HLA-A*26:01. The description is as above. To be noted: source organism: Influenza A virus H3N2.
Another assay has as its target HLA-A*69:01. Described as above.
The target in another assay is HLA-B*15:01. The description is as above.
Another assay has as its target HLA-A*03:01. Described as above.
Another assay deals with HLA-A*31:01. The assay is described as above.
In a further assay the target is HLA-B*07:02. Described as above.
The target in a further assay is HLA-B*08:02. The assay is described as above. The conditions noted are these: source organism: Influenza A virus H3N2.
For a further assay, the target named is HLA-B*40:01. The description is as above.
The next assay concerns the target HLA-A*02:50. Kind of assay: IEDB peptide-MHC binding, purified MHC/competitive/fluorescence; filed as Kd, often an IC50 or EC50 that approximates it; ≥ and ≤ were set here for values at or beyond the usual limits of such assays. The conditions noted are these: source organism: Shigella boydii CDC 3083-94.
A further assay deals with HLA-B*44:02. Kind of assay: IEDB peptide-MHC binding, purified MHC/direct/fluorescence; filed as Kd, often an IC50 or EC50 that approximates it; ≥ and ≤ were set here for values at or beyond the usual limits of such assays. The conditions noted are these: source organism: Escherichia coli O157:H7.
Setting [3] is: source organism: Francisella tularensis subsp. holarctica LVS.
Setting [4] is: source organism: Burkholderia mallei.
Where [5] appears, read: source organism: Influenza A virus (A/Switzerland/8808/2002(H1N1)).
[6] abbreviates: source organism: Escherichia coli O157:H7.

A word on the Kd: it is the concentration at which binding is half-saturated. Read a low Kd as a tighter complex. In the case of LTDKSGSEY, the Kd with HLA-A*80:01 (setting [3]) is 0.29 µM; with HLA-A*01:01 (setting [3]), 0.0012 µM.
Regarding ALRRRTGTR, the dissociation constant Kd with HLA-A*80:01 (setting [4]) and in the assay with HLA-A*01:01 (setting [4]) was at least 20 µM each time.
For the sequence SMLSYGNVL, the dissociation constant Kd with HLA-A*02:12 is 0.075 µM; in the assay with HLA-C*07:02, 0.614 µM; in the assay with HLA-A*02:11, 0.003 µM; with HLA-A*02:01 (source organism: Amur virus), at most 0.001 µM.
In turn, STEFIPNLF returned a dissociation constant (Kd) with HLA-C*04:01 (source organism: human gammaherpesvirus 4) of at least 20 µM.
For VSITNPFLF, the dissociation constant (Kd) was 0.0057 µM with HLA-A*24:02 [1] and at least 20 µM with HLA-C*04:01 (source organism: Shigella flexneri 5 str. 8401).
Consider VPAQNAIST, for which the Kd in the assay with HLA-B*46:01, in the assay with HLA-B*27:05 (setting [5]), with HLA-B*58:01 (setting [5]), in the assay with HLA-A*24:02 [2] (setting [5]), in the assay with HLA-A*11:01 (setting [5]) and in the assay with HLA-B*08:01 was at least 20 µM in each case. The Kd with HLA-A*01:01 (setting [5]), with HLA-B*18:01 (setting [5]), with HLA-A*26:01, with HLA-A*69:01 (setting [5]), in the assay with HLA-B*15:01 (setting [5]) and in the assay with HLA-A*03:01 (setting [5]) was at least 20 µM in each case. Moreover, the Kd with HLA-A*31:01 (setting [5]) is at least 20 µM; in the assay with HLA-B*07:02 (source organism: Influenza A virus (A/Puerto Rico/8/34/Mount Sinai(H1N1))), 0.063 µM; in the assay with HLA-B*08:02 it was at least 20 µM; in the assay with HLA-B*40:01 (setting [5]), at least 20 µM; in the assay with HLA-A*02:01 (setting [5]), at least 20 µM.
For the sequence GMAEDLQSL, the dissociation constant (Kd) was at most 0.0001 µM with HLA-A*02:50; at least 20 µM with HLA-B*44:02; at least 20 µM with HLA-B*27:05 (setting [6]); at least 20 µM with HLA-B*58:01 (setting [6]); at least 20 µM with HLA-A*24:02 [2] (setting [6]); at least 20 µM with HLA-A*11:01 (setting [6]). Further, the Kd was at least 20 µM in the assay with HLA-A*01:01 (setting [6]); at least 20 µM in the assay with HLA-B*18:01 (setting [6]); 1 µM with HLA-A*69:01 (setting [6]); 0.39 µM with HLA-B*15:01 (setting [6]); at least 20 µM in the assay with HLA-A*03:01 (setting [6]); at least 20 µM in the assay with HLA-A*31:01 (setting [6]). Further, the dissociation constant (Kd) with HLA-B*07:02 (setting [6]) was at least 20 µM; with HLA-B*40:01 (setting [6]), at least 20 µM; in the assay with HLA-A*02:01 (setting [6]) it was 0.0657 µM.
